Patent publication US20110166062A1 (INDIANA UNIVERSITY RESEARCH AND TECHNOLOGY, published 2011)
Bridges are numbered along the chain shown (N, C = ends). Where no end group is shown, it is not given here.

T1: GIP receptor (UniProt P48546 22-466)
T1 sequence (looked up): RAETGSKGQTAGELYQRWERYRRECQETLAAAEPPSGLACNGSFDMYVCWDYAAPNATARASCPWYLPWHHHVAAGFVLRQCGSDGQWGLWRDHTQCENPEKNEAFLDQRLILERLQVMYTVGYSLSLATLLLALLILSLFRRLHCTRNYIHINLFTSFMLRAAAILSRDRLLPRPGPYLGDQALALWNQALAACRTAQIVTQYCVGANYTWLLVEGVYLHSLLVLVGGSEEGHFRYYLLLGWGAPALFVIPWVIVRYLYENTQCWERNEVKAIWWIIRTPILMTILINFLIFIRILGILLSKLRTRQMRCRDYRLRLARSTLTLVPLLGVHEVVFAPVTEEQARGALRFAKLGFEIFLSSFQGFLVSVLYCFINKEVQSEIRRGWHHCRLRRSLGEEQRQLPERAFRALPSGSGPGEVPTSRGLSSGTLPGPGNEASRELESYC

B1: mt-149 (peptide)
peptide: YAEGTFTSDYSIYLDEQAAKEFVNWLLAGGPSSGAPPPS-NH2
modifications: lactam 16-20; N-terminus assumed
SMILES: CC[C@H](C)[C@H](NC(=O)[C@H](CO)NC(=O)[C@H](Cc1ccc(O)cc1)NC(=O)[C@H](CC(=O)O)NC(=O)[C@H](CO)NC(=O)[C@@H](NC(=O)[C@H](Cc1ccccc1)NC(=O)[C@@H](NC(=O)CNC(=O)[C@H](CCC(=O)O)NC(=O)[C@H](C)NC(=O)[C@@H](N)Cc1ccc(O)cc1)[C@@H](C)O)[C@@H](C)O)C(=O)N[C@@H](Cc1ccc(O)cc1)C(=O)N[C@@H](CC(C)C)C(=O)N[C@@H](CC(=O)O)C(=O)N[C@H]1CCC(=O)NCCCC[C@@H](C(=O)N[C@@H](CCC(=O)O)C(=O)N[C@@H](Cc2ccccc2)C(=O)N[C@H](C(=O)N[C@@H](CC(N)=O)C(=O)N[C@@H](Cc2c[nH]c3ccccc23)C(=O)N[C@@H](CC(C)C)C(=O)N[C@@H](CC(C)C)C(=O)N[C@@H](C)C(=O)NCC(=O)NCC(=O)N2CCC[C@H]2C(=O)N[C@@H](CO)C(=O)N[C@@H](CO)C(=O)NCC(=O)N[C@@H](C)C(=O)N2CCC[C@H]2C(=O)N2CCC[C@H]2C(=O)N2CCC[C@H]2C(=O)N[C@@H](CO)C(N)=O)C(C)C)NC(=O)[C@H](C)NC(=O)[C@H](C)NC(=O)[C@H](CCC(N)=O)NC1=O
B2: mt-147 (peptide)
peptide: YSQGTFTSDYSIYLDEQAAKEFIAWLLAGGPSSGAPPPS-NH2
modifications: lactam 16-20; N-terminus assumed
SMILES: CC[C@H](C)[C@H](NC(=O)[C@H](Cc1ccccc1)NC(=O)[C@H](CCC(=O)O)NC(=O)[C@@H]1CCCCNC(=O)CC[C@H](NC(=O)[C@H](CC(=O)O)NC(=O)[C@H](CC(C)C)NC(=O)[C@H](Cc2ccc(O)cc2)NC(=O)[C@@H](NC(=O)[C@H](CO)NC(=O)[C@H](Cc2ccc(O)cc2)NC(=O)[C@H](CC(=O)O)NC(=O)[C@H](CO)NC(=O)[C@@H](NC(=O)[C@H](Cc2ccccc2)NC(=O)[C@@H](NC(=O)CNC(=O)[C@H](CCC(N)=O)NC(=O)[C@H](CO)NC(=O)[C@@H](N)Cc2ccc(O)cc2)[C@@H](C)O)[C@@H](C)O)[C@@H](C)CC)C(=O)N[C@@H](CCC(N)=O)C(=O)N[C@@H](C)C(=O)N[C@@H](C)C(=O)N1)C(=O)N[C@@H](C)C(=O)N[C@@H](Cc1c[nH]c2ccccc12)C(=O)N[C@@H](CC(C)C)C(=O)N[C@@H](CC(C)C)C(=O)N[C@@H](C)C(=O)NCC(=O)NCC(=O)N1CCC[C@H]1C(=O)N[C@@H](CO)C(=O)N[C@@H](CO)C(=O)NCC(=O)N[C@@H](C)C(=O)N1CCC[C@H]1C(=O)N1CCC[C@H]1C(=O)N1CCC[C@H]1C(=O)N[C@@H](CO)C(N)=O
B3: mt-143 (peptide)
peptide: YSQGTFTSDYSKYLDERRAKEFVNWLLAGGPSSGAPPPS-NH2
modifications: lactam 16-20; N-terminus assumed
SMILES: CC(C)C[C@H](NC(=O)[C@H](CC(C)C)NC(=O)[C@H](Cc1c[nH]c2ccccc12)NC(=O)[C@H](CC(N)=O)NC(=O)[C@@H](NC(=O)[C@H](Cc1ccccc1)NC(=O)[C@H](CCC(=O)O)NC(=O)[C@@H]1CCCCNC(=O)CC[C@H](NC(=O)[C@H](CC(=O)O)NC(=O)[C@H](CC(C)C)NC(=O)[C@H](Cc2ccc(O)cc2)NC(=O)[C@H](CCCCN)NC(=O)[C@H](CO)NC(=O)[C@H](Cc2ccc(O)cc2)NC(=O)[C@H](CC(=O)O)NC(=O)[C@H](CO)NC(=O)[C@@H](NC(=O)[C@H](Cc2ccccc2)NC(=O)[C@@H](NC(=O)CNC(=O)[C@H](CCC(N)=O)NC(=O)[C@H](CO)NC(=O)[C@@H](N)Cc2ccc(O)cc2)[C@@H](C)O)[C@@H](C)O)C(=O)N[C@@H](CCCNC(=N)N)C(=O)N[C@@H](CCCNC(=N)N)C(=O)N[C@@H](C)C(=O)N1)C(C)C)C(=O)N[C@@H](C)C(=O)NCC(=O)NCC(=O)N1CCC[C@H]1C(=O)N[C@@H](CO)C(=O)N[C@@H](CO)C(=O)NCC(=O)N[C@@H](C)C(=O)N1CCC[C@H]1C(=O)N1CCC[C@H]1C(=O)N1CCC[C@H]1C(=O)N[C@@H](CO)C(N)=O
B4: mt-148 (peptide)
peptide: YSEGTFTSDYSIYLDEQAAKEFIAWLLAGGPSSGAPPPS-NH2
modifications: lactam 16-20; N-terminus assumed
SMILES: CC[C@H](C)[C@H](NC(=O)[C@H](Cc1ccccc1)NC(=O)[C@H](CCC(=O)O)NC(=O)[C@@H]1CCCCNC(=O)CC[C@H](NC(=O)[C@H](CC(=O)O)NC(=O)[C@H](CC(C)C)NC(=O)[C@H](Cc2ccc(O)cc2)NC(=O)[C@@H](NC(=O)[C@H](CO)NC(=O)[C@H](Cc2ccc(O)cc2)NC(=O)[C@H](CC(=O)O)NC(=O)[C@H](CO)NC(=O)[C@@H](NC(=O)[C@H](Cc2ccccc2)NC(=O)[C@@H](NC(=O)CNC(=O)[C@H](CCC(=O)O)NC(=O)[C@H](CO)NC(=O)[C@@H](N)Cc2ccc(O)cc2)[C@@H](C)O)[C@@H](C)O)[C@@H](C)CC)C(=O)N[C@@H](CCC(N)=O)C(=O)N[C@@H](C)C(=O)N[C@@H](C)C(=O)N1)C(=O)N[C@@H](C)C(=O)N[C@@H](Cc1c[nH]c2ccccc12)C(=O)N[C@@H](CC(C)C)C(=O)N[C@@H](CC(C)C)C(=O)N[C@@H](C)C(=O)NCC(=O)NCC(=O)N1CCC[C@H]1C(=O)N[C@@H](CO)C(=O)N[C@@H](CO)C(=O)NCC(=O)N[C@@H](C)C(=O)N1CCC[C@H]1C(=O)N1CCC[C@H]1C(=O)N1CCC[C@H]1C(=O)N[C@@H](CO)C(N)=O
B5: mt-144 (peptide)
peptide: YAQGTFTSDYSIYMDEQAAKEFVNWLLAGGPSSGAPPPS-NH2
modifications: lactam 16-20; N-terminus assumed
SMILES: CC[C@H](C)[C@H](NC(=O)[C@H](CO)NC(=O)[C@H](Cc1ccc(O)cc1)NC(=O)[C@H](CC(=O)O)NC(=O)[C@H](CO)NC(=O)[C@@H](NC(=O)[C@H](Cc1ccccc1)NC(=O)[C@@H](NC(=O)CNC(=O)[C@H](CCC(N)=O)NC(=O)[C@H](C)NC(=O)[C@@H](N)Cc1ccc(O)cc1)[C@@H](C)O)[C@@H](C)O)C(=O)N[C@@H](Cc1ccc(O)cc1)C(=O)N[C@@H](CCSC)C(=O)N[C@@H](CC(=O)O)C(=O)N[C@H]1CCC(=O)NCCCC[C@@H](C(=O)N[C@@H](CCC(=O)O)C(=O)N[C@@H](Cc2ccccc2)C(=O)N[C@H](C(=O)N[C@@H](CC(N)=O)C(=O)N[C@@H](Cc2c[nH]c3ccccc23)C(=O)N[C@@H](CC(C)C)C(=O)N[C@@H](CC(C)C)C(=O)N[C@@H](C)C(=O)NCC(=O)NCC(=O)N2CCC[C@H]2C(=O)N[C@@H](CO)C(=O)N[C@@H](CO)C(=O)NCC(=O)N[C@@H](C)C(=O)N2CCC[C@H]2C(=O)N2CCC[C@H]2C(=O)N2CCC[C@H]2C(=O)N[C@@H](CO)C(N)=O)C(C)C)NC(=O)[C@H](C)NC(=O)[C@H](C)NC(=O)[C@H](CCC(N)=O)NC1=O

These binders were tested against glucagon receptor (UniProt P47871 26-477, limits assumed) (assay: cell-based or functional assay).
Chain of glucagon receptor (P47871 26-477 limits assumed): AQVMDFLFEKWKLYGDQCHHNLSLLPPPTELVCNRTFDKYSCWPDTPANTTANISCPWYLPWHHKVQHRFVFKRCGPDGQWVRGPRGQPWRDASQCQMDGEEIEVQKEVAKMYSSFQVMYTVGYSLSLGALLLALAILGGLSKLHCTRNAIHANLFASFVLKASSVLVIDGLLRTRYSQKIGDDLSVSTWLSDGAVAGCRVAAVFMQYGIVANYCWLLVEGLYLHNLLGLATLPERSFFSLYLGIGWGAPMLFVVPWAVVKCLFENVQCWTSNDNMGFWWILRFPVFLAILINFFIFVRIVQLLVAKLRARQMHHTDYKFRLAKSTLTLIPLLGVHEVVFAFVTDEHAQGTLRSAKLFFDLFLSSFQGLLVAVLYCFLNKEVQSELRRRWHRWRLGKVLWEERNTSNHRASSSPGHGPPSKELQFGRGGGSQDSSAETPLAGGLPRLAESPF

First: B1
Second: B2
The “EC50” value of the first is 140-fold higher: 16.3 nM for the first, 0.116 nM for the second.

First: B3
Second: B4
The “EC50” value of the first is 57-fold lower: 0.086 nM for the first, 4.91 nM for the second.

With B5 the “EC50” value was 2.27 nM.

Going from B1 to B2, the relative activity rises from 0.64% to 90.5%.

Compared with B3, B4 is lower in relative activity: 497% for the first, 2.14% for the second.

For B5, the relative activity was 16.8%.

The binders below were run against GLP-1 receptor (UniProt P43220 24-463, limits assumed) (assay: cell-based or functional assay).

First: B1
Second: B2
The “EC50” value of the first is 2.9-fold lower: 0.036 nM for the first, 0.105 nM for the second.

First: B3
Second: B4
The “EC50” value of the first is 15-fold higher: 1.48 nM for the first, 0.098 nM for the second.

With B5 the “EC50” value was 0.036 nM.

First: B1
Second: B2
The relative activity of the first is higher: 97.5% for the first, 33.9% for the second.

Compared with B3, B4 is higher in relative activity: 4.53% for the first, 36.2% for the second.

With B5 the relative activity was 142%.

These binders were tested against T1, GIP receptor (assay: cell-based or functional assay).

Compared with B1, B2 is 2.1-fold higher in “EC50” value: 0.068 nM for the first, 0.144 nM for the second.

Compared with B3, B4 is 28-fold lower in “EC50” value: 2.63 nM for the first, 0.095 nM for the second.

With B5 the “EC50” value was 0.48 nM.

Compared with B1, B2 is lower in relative activity: 91.2% for the first, 43.1% for the second.

Going from B3 to B4, the relative activity rises from 1.82% to 65.3%.

In the case of B5, the relative activity is reported as 18.5%.
